Experimental data reported in patent US9217011B2, “Non-natural proteinaceous scaffold made of three non-covalently associated peptides” (Complix NV, priority 2007, dated 2015).
Like-named read-outs stand apart in the source and are kept apart here.

Type: physicochemical
Conditions: for reversibility of thermal unfolding (up and down scan): CD signal as a function of temperature, about 1 degree Celsius per minute; for alpha-helical secondary structure from CD spectrum: 292 microM, pH 7.2
Procedure: The said synthesized peptide was dissolved at a concentration of 292 microM in 20 mM phosphate buffer (PBS), 150 mM NaCl, pH 7.2. The CD spectra were measured between […], at 5 and 90 degrees Celsius (FIG. 3).
To analyse whether the temperature-induced transition between helical and nonhelical states was reversible, a forward (up) and backward (down) thermal scan was performed on the same sample, by recording the CD signal at […] as a function of temperature at a scanning rate of about 1 degree Celsius per minute (FIG. 4).
It was further analyzed whether the thermal unfolding curve of FIG. 4 conformed to the thermodynamic equations describing the equilibrium folding/unfolding reaction between three molecules free (monomeric) peptide and one entity of folded (trimeric) complex. This reaction is generally written as 3 peptide <=> peptide3
[formula] [formula] [formula] and • T≡the temperature, in degrees Kelvin, of the sample • θ(T)≡the CD-signal [theta]222 nm, in deg cm^2 dmol^−1, as a function of T • θM(T)≡the CD-signal for 100% free (monomeric) peptide as a function of T • θT(T)≡the CD-signal for 100% associated (trimeric) peptide as a function of T • Tt≡the transition temperature, where 50% of the total peptide concentration is associated • ΔHt≡the enthalpy difference, in kJ per mole peptide, between mono- and trimeric states • ΔCp≡the heat capacity difference, in J mol^−1 K^−1, between mono- and trimeric states • R≡the ideal (universal) gas constant≡8.31 J mol^−1 K^−1
FIG. 5 represents fitting of a theoretic equation for trimeric association to experimental data. The experimental data are taken from FIG. 4, curve labeled “UP”. The theoretic equations used are listed supra. The fitted parameters (fitting results) are listed at the right in FIG. 5. “Transit. T” corresponds to Tt, but is expressed here in degrees Celsius. The parameter “delta Cp” was kept constant at 3.0 kJ mol^−1 K^−1. The parameters “thetaM(T)” and “thetaT(T)” were treated as linear functions of T, resulting in the white straight lines described by the respective offsets and slopes indicated at the right in the figure. “RMS Resid.” refers to the root-mean-square of the differences between experimental and theoretic data points. The fitted (theoretic) curve itself is plotted in white on the figure and coincides over the entire temperature range with the experimental data points shown in black.

With “Ac-MSIEEIQKQIAAIQKQIAAIQKQIYRMTP-NH2 [Q2aI]” the “thermal stability (in words)” value was “extremely thermostable”, the “reversibility of thermal unfolding (up and down scan)” value was “full reversibility” and the “temperature up to which the peptide did not quantitatively unfold” value (thermal CD scan) was at least 95 degrees Celsius. The estimated transition temperature (thermal denaturation curve, same conditions as Example 3 (292 microM, 20 mM phosphate buffer, 150 mM NaCl, pH 7.2), transition incomplete) was “around 97 degrees Celsius”.
For “Ac-MSIEEIQKQQAAIQKQIAAIQKQIYRMTP-NH2 [Q2a]”, the “thermal stability (in words)” value was “moderately stable”, the “alpha-helical secondary structure from CD spectrum” value (5 degrees Celsius) was “high alpha-helical secondary structure content” and the “alpha-helical secondary structure from CD spectrum” value (90 degrees Celsius) was “greatly, but not completely, lost”. For the same substance, the “reversibility of thermal unfolding (up and down scan)” value was “up and down scans almost perfectly coincided”.
